According to patent US11833215B2, “CKIT antibody drug conjugates” (Novartis AG, priority 2014, dated 2023):

T1: mouse cKIT (Mus musculus, UniProt P05532)
T1 construct: cKIT receptor extracellular domains (ECD) were diluted in a 2-fold series
T1 sequence (P05532 25-527 limits assumed): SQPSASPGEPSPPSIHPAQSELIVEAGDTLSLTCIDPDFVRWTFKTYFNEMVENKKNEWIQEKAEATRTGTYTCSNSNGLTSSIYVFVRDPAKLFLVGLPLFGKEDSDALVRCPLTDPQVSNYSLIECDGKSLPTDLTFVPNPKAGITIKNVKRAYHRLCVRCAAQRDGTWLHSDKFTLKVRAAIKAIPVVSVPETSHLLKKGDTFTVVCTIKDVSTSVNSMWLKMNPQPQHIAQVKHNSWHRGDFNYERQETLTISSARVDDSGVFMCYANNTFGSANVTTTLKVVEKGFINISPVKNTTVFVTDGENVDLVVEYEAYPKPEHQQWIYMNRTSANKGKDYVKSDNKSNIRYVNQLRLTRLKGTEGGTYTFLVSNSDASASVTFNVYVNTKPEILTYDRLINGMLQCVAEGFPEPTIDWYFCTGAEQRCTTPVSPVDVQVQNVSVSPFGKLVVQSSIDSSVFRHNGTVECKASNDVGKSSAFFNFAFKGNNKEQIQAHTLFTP


Tests used:
GIST cell lines = details: SR-1 as second therapeutic on Imatinib treated cells; cited from earlier work
Uke-1 cells = assay: ADCC activity in vitro (Calcein release, NK3.3 effector cells); type: cell-based; details: unconjugated IgG1, effector to target ratio 20 to 1
Method: The ability of the unconjugated anti-cKIT antibodies (NEG085, 20376) to mediate antibody dependent cellular cytotoxicity was determined versus Uke-1 cells (target cells; generously provided by Professor Walter Fiedler, University Hospital Eppendorf, Hamburg, Germany) in co-incubation with NK3.3 cells (killer cells or effector cells; kindly provided by Jacky Kornbluth from Saint Louis University). […] In order to calculate the antibody specific lysis of the target cells, a parallel incubation of target cells only without antibody or effector cells served as a baseline and negative control, whereas the positive control or maximal lysis or hundred percent specific lysis was determined by lysis of target cells only with a 1% Triton-X 100 solution. […] Following a co-incubation of target and effector cells, the microtiterplate was centrifuged and an aliquot of the supernatant fluid was transferred to another microtiterplate (96 well, flat-bottomed, black with clear bottom; (Corning Costar, catalog #3904, Tewksbury, MA) and the concentration of free Calcein in solution was determined with a fluorescence counter (Victor 3 ® multilabel counter, Perkin Elmer, Waltham, MA).

SCF binding to cKIT = SCF binding to cKIT (Homo sapiens, UniProt P10721); assay: competition assays using ELISA and FACS
SCF binding to cKIT, sequence (P10721 26-976): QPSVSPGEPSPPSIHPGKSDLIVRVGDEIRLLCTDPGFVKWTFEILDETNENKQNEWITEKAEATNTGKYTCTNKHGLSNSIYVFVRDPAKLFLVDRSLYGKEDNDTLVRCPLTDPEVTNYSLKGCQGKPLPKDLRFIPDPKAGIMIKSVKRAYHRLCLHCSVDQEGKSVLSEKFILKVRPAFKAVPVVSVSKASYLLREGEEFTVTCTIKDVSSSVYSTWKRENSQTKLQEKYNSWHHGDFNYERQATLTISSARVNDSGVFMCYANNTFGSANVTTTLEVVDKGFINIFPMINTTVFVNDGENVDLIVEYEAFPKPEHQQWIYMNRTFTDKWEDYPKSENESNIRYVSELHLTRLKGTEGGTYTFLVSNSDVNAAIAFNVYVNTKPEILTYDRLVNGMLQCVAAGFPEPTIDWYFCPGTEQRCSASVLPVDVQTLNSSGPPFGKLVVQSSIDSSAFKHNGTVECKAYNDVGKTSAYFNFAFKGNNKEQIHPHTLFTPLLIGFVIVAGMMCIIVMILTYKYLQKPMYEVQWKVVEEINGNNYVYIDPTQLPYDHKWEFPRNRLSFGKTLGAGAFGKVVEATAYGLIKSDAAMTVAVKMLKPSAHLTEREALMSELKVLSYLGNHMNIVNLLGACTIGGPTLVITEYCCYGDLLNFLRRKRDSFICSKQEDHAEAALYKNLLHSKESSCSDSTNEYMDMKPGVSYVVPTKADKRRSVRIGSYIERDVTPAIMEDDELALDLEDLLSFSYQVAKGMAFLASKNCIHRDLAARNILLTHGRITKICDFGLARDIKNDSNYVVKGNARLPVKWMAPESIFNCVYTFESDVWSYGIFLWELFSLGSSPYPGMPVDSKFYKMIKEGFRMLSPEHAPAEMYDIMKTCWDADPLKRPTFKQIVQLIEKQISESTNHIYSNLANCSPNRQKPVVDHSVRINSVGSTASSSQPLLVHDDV

rat cKIT = assay: SPR (Biacore) affinity measurement; type: binding; details: 25° C., 1:1 model
rat cKIT, sequence (as listed by the source): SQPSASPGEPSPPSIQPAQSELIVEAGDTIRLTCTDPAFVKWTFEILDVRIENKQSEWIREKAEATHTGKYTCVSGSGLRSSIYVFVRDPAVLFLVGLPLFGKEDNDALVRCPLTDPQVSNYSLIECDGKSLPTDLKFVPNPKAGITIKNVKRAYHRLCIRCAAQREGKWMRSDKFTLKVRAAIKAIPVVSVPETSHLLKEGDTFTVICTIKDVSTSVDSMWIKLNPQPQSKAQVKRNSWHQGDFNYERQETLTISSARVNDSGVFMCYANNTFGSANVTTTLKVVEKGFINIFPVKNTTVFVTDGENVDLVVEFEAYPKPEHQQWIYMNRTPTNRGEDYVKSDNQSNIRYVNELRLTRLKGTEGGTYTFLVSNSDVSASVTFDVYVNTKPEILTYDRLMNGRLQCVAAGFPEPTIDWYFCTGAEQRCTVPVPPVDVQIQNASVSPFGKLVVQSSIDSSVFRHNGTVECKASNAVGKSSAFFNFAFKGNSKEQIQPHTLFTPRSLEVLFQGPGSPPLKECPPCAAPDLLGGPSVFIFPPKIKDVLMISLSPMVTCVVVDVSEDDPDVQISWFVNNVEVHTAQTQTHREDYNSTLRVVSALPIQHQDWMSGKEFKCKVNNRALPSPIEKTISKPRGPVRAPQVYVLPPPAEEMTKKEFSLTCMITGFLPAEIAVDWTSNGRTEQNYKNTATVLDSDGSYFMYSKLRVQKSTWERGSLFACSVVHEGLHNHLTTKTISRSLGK
Method: (§1) Affinity of the antibodies to cKIT species orthologues and also to cKIT was determined using SPR technology using a Biacore® 2000 instrument (GE Healthcare, Pittsburgh, PA) and with CM5 sensor chips.
(§2) Briefly, HBS-P (0.01 M HEPES, pH 7.4, 0.15 M NaCl, 0.005% Surfactant P20) supplemented with 2% Odyssey® blocking buffer (Li-Cor Biosciences, Lincoln, NE) was used as the running buffer for all the experiments. The immobilization level and analyte interactions were measured by response unit (RU). Pilot experiments were performed to test and confirm the feasibility of the immobilization of the anti-human Fc antibody (Catalog number BR100839, GE Healthcare, Pittsburgh, PA) and the capture of the test antibodies.
(§3) For kinetic measurements, the experiments were performed in which the antibodies were captured to the sensor chip surface via the immobilized anti-human Fc antibody and the ability of the cKIT proteins to bind in free solution was determined. Briefly, 25 μg/ml of anti-human Fc antibody at pH 5 was immobilized on a CM5 sensor chip through amine coupling at flow rate of 5 μl/minute on all two flow cells to reach 10,500 RUs. 0.1-1 μg/ml of test antibodies were then injected at 10 μl/min for 1 minute. Captured levels of the antibodies were generally kept below 200 RUs. Subsequently, 3.125 −50 nM of cKIT receptor extracellular domains (ECD) were diluted in a 2-fold series and injected at a flow rate of 40 μl/min for 3 min over both reference and test flow cells. Table of tested ECDs is listed below (Table 6). Dissociation of the binding was followed for 10 min. After each injection cycle, the chip surface was regenerated with 3 M MgCl2 at 10 μl/min for 30 seconds.

mouse cKIT = molecular target: T1, mouse cKIT; assay: SPR (Biacore) affinity measurement; type: binding; details: 25° C., 1:1 model
Method: as §1, §2, §3

human cKIT = molecular target: T2, human cKIT (Homo sapiens, UniProt P10721); assay: SPR (Biacore) affinity measurement; type: binding; details: 25° C., 1:1 model
T2 construct: Human cKIT tr. variant 2 , residues 26-520-TAG; made in house; host or cells: HEK293 derived cell line 293FS, transient transfection
T2 sequence (P10721 with tags, fused parts or gaps isoform P10721-2): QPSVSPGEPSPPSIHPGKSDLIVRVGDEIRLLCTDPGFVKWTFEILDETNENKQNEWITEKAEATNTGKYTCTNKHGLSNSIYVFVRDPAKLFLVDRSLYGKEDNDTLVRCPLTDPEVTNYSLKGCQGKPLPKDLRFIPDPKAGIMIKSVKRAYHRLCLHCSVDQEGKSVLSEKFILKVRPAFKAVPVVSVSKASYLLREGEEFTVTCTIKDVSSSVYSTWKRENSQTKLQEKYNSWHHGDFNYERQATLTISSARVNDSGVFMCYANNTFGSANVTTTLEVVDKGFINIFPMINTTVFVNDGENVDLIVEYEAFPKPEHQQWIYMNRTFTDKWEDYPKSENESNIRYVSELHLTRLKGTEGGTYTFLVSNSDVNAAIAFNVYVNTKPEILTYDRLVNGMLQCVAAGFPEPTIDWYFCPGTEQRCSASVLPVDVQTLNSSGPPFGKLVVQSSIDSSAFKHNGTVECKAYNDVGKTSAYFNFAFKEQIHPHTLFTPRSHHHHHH
Method: as §1, §2, §3

Molecule	proliferation of GIST cells (GIST cell lines)	ADCC killing of target cells (Uke-1 cells)	blocking of SCF binding to cKIT (SCF binding to cKIT)	Affinity to rat cKIT (nM) (rat cKIT)	Affinity mouse cKIT (nM) (mouse cKIT)	Affinity human cKIT (nM) (human cKIT)
Cc1ccc(NC(=O)c2ccc(CN3CCN(C)CC3)cc2)cc1Nc1nccc(-c2cccnc2)n1 [imatinib]	significantly reduce proliferation					
MabCampath® [reference compound]		mediated ADCC killing				
9P3: hybridoma derived anti-cKIT antibody, VH SEQ ID NO:9, VL SEQ ID NO:18 (antibody, listed as Homo sapiens, V domains shown) VH: EVRLVESEGGLVQPRSSMKLSCTASGFTFSDYYMAWVRQVPEKGLEWVANINYDGSSTYYLDSLKSRFIISRDNAKNILYLQMSSLKSEDTATYYCARGDYYGTTYWYFDVWGTGTTVTVSS VL: DIQMTQTTSSLSASLGDRVTISCRASQDISNYLNWYQQKPDGTVKLLIYYTSRLQSGVPSRFSGSGSGTDYSLTISNLEQEDIATYFCQQGKKLWSFGGGTKLEIKR			partial blocking	Not reactive	Not reactive	nanomolar level
NEG027: anti-cKIT antibody of Table 3, VH SEQ ID NO 64, VL SEQ ID NO 73 (antibody, listed as Homo sapiens, V domains shown) VH: EVQLVESGGGLVQPGGSLRLSCAASGFTFSDYYMAWVRQAPGKGLEWVASINQNTGSTYYLDSVRGRFTISRDNAKNSLYLQMNSLRAEDTAVYYCARGDYYGTTYWYFDVWGQGTTVTVSS VL: EIVMTQSPATLSLSPGERATLSCRASQDISNYLNWYQQKPGQAPRLLIYYTSRLQSGIPARFSGSGSGTDYTLTISSLEPEDFAVYYCQQGKKLWSFGGGTKVEIK				Not reactive	Not reactive	nanomolar level
NEG086: anti-cKIT antibody of Table 3, VH SEQ ID NO 100, VL SEQ ID NO 109 (antibody, listed as Homo sapiens, V domains shown) VH: EVQLVESGGGLVQPGGSLRLSCAASGFTFSDYYMAWVRQAPGKGLEWVANINQIAGSTYYVDSVQGRFTISRDNAKNSLYLQMNSLRAEDTAVYYCARGDYYGTTYWYFDVWGQGTTVTVSS VL: DIQMTQSPSSLSASVGDRVTITCRASQSISSYLNWYQQKPGKAPKLLIYYTSRLQSGVPSRFSGSGSGTDFTLTISSLQPEDFATYYCQQGRRLWSFGGGTKVEIK				Not reactive	Not reactive	nanomolar level
NEG087: anti-cKIT antibody of Table 3, VH SEQ ID NO 118, VL SEQ ID NO 127 (antibody, listed as Homo sapiens, V domains shown) VH: EVQLVESGGGLVQPGGSLRLSCAASGFTFSDYYMAWVRQAPGKGLEWVASINQNTGSTYYLDSVRGRFTISRDNAKNSLYLQMNSLRAEDTAVYYCARGDYYGTTYWYFDVWGQGTTVTVSS VL: DIQMTQSPSSLSASVGDRVTITCRASQSISSYLNWYQQKPGKAPKLLIYYTSRLQSGVPSRFSGSGSGTDFTLTISSLQPEDFATYYCQQGRRLWSFGGGTKVEIK				Not reactive	Not reactive	nanomolar level
NEG026: anti-cKIT antibody of Table 3, VH SEQ ID NO 46, VL SEQ ID NO 55 (antibody, listed as Homo sapiens, V domains shown) VH: EVQLVESGGGLVQPGGSLRLSCAASGFTFSDYYMAWVRQAPGKGLEWVANINQNTGSTYYVDSVQGRFTISRDNAKNSLYLQMNSLRAEDTAVYYCARGDYYGTTYWYFDVWGQGTTVTVSS VL: EIVMTQSPATLSLSPGERATLSCRASQDISNYLNWYQQKPGQAPRLLIYYTSRLQSGIPARFSGSGSGTDYTLTISSLEPEDFAVYYCQQGKKLWSFGGGTKVEIK				Not reactive	Not reactive	
